One substance from US7629443 can be followed below.

In assay [1] the target is RBD-Fc (SARS-CoV; human) (UniProt P59594). Put plainly: competitive ELISA on coated RBD-Fc; competitor: biotinylated 45B5. For orientation: An ELISA detects its analyte on a solid surface through an enzyme-linked reagent.
The target is the same in assay [2]. Kind of assay: competitive ELISA on coated RBD-Fc; competitor: biotinylated 10E7.
In assay [3] the target is SARS-CoV S protein on SARS pseudovirus (SARS-CoV) (UniProt P59594). Put plainly: cell-based or functional assay.
Assay [4] addresses RBD-Fc (SARS-CoV; human) (UniProt P59594). Put plainly: competitive ELISA on coated RBD-Fc; competitor: biotinylated 17H9.
The target is the same in assay [5]. Kind of assay: competitive ELISA on coated RBD-Fc; competitor: biotinylated 33G4.
Assay [6] has as its target DTT-reduced S1-C9 (SARS-CoV) (UniProt P59594). Kind of assay: ELISA, antigen coated 1 µg/ml, mAb 10 µg/ml.
Assay [7] addresses RBD-Fc (SARS-CoV; human) (UniProt P59594). Kind of assay: ELISA, antigen coated 1 µg/ml, mAb 10 µg/ml.
In assay [8] the target is DTT-reduced RBD-Fc (SARS-CoV; human) (UniProt P59594). Kind of assay: ELISA, antigen coated 1 µg/ml, mAb 10 µg/ml.
The target in the next assay is S1-C9 (SARS-CoV) (UniProt P59594). Kind of assay: ELISA, antigen coated 1 µg/ml, mAb 10 µg/ml.
For assay [9], the target named is RBD-Fc (SARS-CoV; human) (UniProt P59594). Put plainly: competitive ELISA on coated RBD-Fc; competitor: biotinylated 11E12.

For orientation: % inhibition means the change of the read-out against control, counted positive when it falls. On to 4D5 (antibody), for which the % inhibition in the assay with RBD-Fc (SARS-CoV; human) [1] is 1%; with RBD-Fc (SARS-CoV; human) [2] it was 13%; in the assay with RBD-Fc (SARS-CoV; human) [4] it was -10.5%; with RBD-Fc (SARS-CoV; human) [5], -11.1%; in the assay with RBD-Fc (SARS-CoV; human) [9] it was 10.6%. In assay [3], the ND50, neutralization of SARS pseudovirus infection of 293T/ACE2 cells was > 100 µg/mL. The reactivity (absorbance at 450 nm) in assay [6] turned out to be 0.94; in the assay with RBD-Fc (SARS-CoV; human) [7], 0.88; in assay [8], 1.36; in the assay with S1-C9 (SARS-CoV), 0.65.
